Tested on: MS2 coat protein
Assay: apparent KD of MS2 coat protein; designed switch direction (-1 OFF switch, 1 ON switch): -1; higher = weaker reporter binding
Outline: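 Designed RNA switches were transcribed on Illumina chips by stalled E. coli RNA polymerase and titrated with SNAP-549-labelled MS2 coat protein from 0.7 or 1.5 nM, doubling to 3 µM. Step length ran from 0.8–1.5 h at the lowest concentration to 10–20 min at the highest. The apparent KD is the median over clusters for each design, from curve-fitted normalised cluster fluorescence.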

[1] = input ligand: microRNA oligo, concentration not stated
[2] = Eterna round: R95, input ligand: microRNA oligo, concentration not stated
[3] = Eterna round: R95, input ligand: FMN 200 uM
[4] = Eterna round: R95, input ligand: none

Sequence: CCGAAGUCCUGCGGAGUUCACAUGAGGAUCACCCAUGUAGGCGAGGAUAUUUAUGAUACAUGAGUAAAGAAGGCGUCUGGUAAA [Eternabot solution 26] (Eterna round: R96, puzzle: Exclusion NG 3)
- apparent KD of MS2 coat protein (input ligand: FMN 200 uM): 40.7 nM
- apparent KD of MS2 coat protein [1]: 18.2 nM
- apparent KD of MS2 coat protein (input ligand: none): 29.1 nM

Sequence: CCGCAAAUGCAGGAUAUCGUAUCGGAUACGAUACGAGAAGGGCGUACAUGAGGAUCACCCAUGUGUCCUAGCGG [Fiskers Ex 6 - 42] (puzzle: Exclusion 6)
- apparent KD of MS2 coat protein [2]: 16.6 nM

Sequence: CCGCGUGAUUAGGAUAUCAAACUAGCGUGUACAUGAGAAGGGAUCACAUGAGGAUCACCCAUGUAAGGGAUCCU [Eternabot (L1) Solution 69] (Eterna round: R97, puzzle: Exclusion 6)
- apparent KD of MS2 coat protein (input ligand: FMN 200 uM): 93.2 nM
- apparent KD of MS2 coat protein (input ligand: none): 56.1 nM

Sequence: CCGCUAAUAGGAUAUACAUGAGGAUCACCCAUGUCACUCUUCAUUGGUGUCUCUUCAAGUAGAAGGGUUGCUCA [Atisdi] (puzzle: Exclusion 3)
- apparent KD of MS2 coat protein [2]: 28.4 nM

Sequence: CCGCUCCGUGUAGGAUAUCGGUGUACCCUGCGCCGAGAAGGACAUGAGGAUCACCCAUGUAUGUUAUUAUCACGCGUGGCGCAC [Design 73] (Eterna round: R96, puzzle: Exclusion NG 1)
- apparent KD of MS2 coat protein (input ligand: FMN 200 uM): 37.7 nM
- apparent KD of MS2 coat protein [1]: 18.9 nM
- apparent KD of MS2 coat protein (input ligand: none): 37.7 nM

Sequence: CCGGAAAGGAAGGAUAUGCUAGACGAAAGUCUAGCAGAAGGUCCUACAUGAGGAUCACCCAUGUGGCCUCCCGG [Eli x6 4.09] (Eterna round: R97, puzzle: Exclusion 6)
- apparent KD of MS2 coat protein (input ligand: FMN 200 uM): 267 nM
- apparent KD of MS2 coat protein (input ligand: none): 137 nM

Sequence: CCGGAAAUAGAGGAUAUAGGACUGGAUACAGUCCUAGAAGGCUAUACAUGAGGAUCACCCAUGUGUCCUACCGG [Fiskers Ex 6 - 63] (puzzle: Exclusion 6)
- apparent KD of MS2 coat protein [2]: 14.1 nM

Sequence: CCGGAAAUGCAGGAUAUCGUAUCGGAUACGAUACGAGAAGGGUAUACAUGAGGAUCACCCAUGUGUCCUACCGG [Fiskers Ex 6 - 49] (puzzle: Exclusion 6)
- apparent KD of MS2 coat protein [2]: 18.3 nM

Sequence: CCGGAAAUGGAGGAUAUAGGAGUCGAUAGACACCUAGAAGGUCAGACAUGAGGAUCACCCAUGUGUCCUACCGG [Fiskers Ex 6 - 88] (puzzle: Exclusion 6)
- apparent KD of MS2 coat protein [2]: 14.9 nM

Sequence: CCGGAACAUGAGGAUCACCCAUGUCAGGAUAUGAAUAAAUCGUCGAUAGACGAUAAUCUCAGAAGGGACACCGG [Mat - Exclusion 1 - Eli Mod - D27] (Eterna round: R97, puzzle: Exclusion 1)
- apparent KD of MS2 coat protein (input ligand: FMN 200 uM): 24.5 nM
- apparent KD of MS2 coat protein (input ligand: none): 24.2 nM

Sequence: CCGGAAUAGCAGGAUAUAGGAGUCGAUAGACACCUAGAAGGGCUGACAUGAGGAUCACCCAUGUGUCCUACCGG [Fiskers Ex 6 - 83] (puzzle: Exclusion 6)
- apparent KD of MS2 coat protein [2]: 71.5 nM

Sequence: CCGGAAUAGCAGGAUAUAGGAGUCGAUAGACACCUAGAAGGGUUGACAUGAGGAUCACCCAUGUGUCCUACCGG [Fiskers Ex 6 - 82] (puzzle: Exclusion 6)
- apparent KD of MS2 coat protein [3]: 322 nM
- apparent KD of MS2 coat protein [2]: 247 nM
- apparent KD of MS2 coat protein [4]: 519 nM

Sequence: CCGGAAUUGCAGGAUAUAGGAGUCGAUAGACACCUAGAAGGGCAGACAUGAGGAUCACCCAUGUGUCCUACCGG [Fiskers Ex 6 - 84] (puzzle: Exclusion 6)
- apparent KD of MS2 coat protein [2]: 17.4 nM

Sequence: CCGGCAUGGUGCGGUAGUUGUACAACAUGAGGAUCACCCAUGUAGGAUAUGCGCGUGGUCACGCCGCAGAAGGACAACGUAUGG [Random, 25% A] (Eterna round: R96, puzzle: Exclusion NG 3)
- apparent KD of MS2 coat protein (input ligand: FMN 200 uM): 668 nM
- apparent KD of MS2 coat protein [1]: 89.4 nM
- apparent KD of MS2 coat protein (input ligand: none): 96 nM

Sequence: CCGGCGUCAGGAUAUCGUAGCAGGACAUUCAGUCGCGGCUAUGAGAAGGGACAUGAGGAUCACCCAUGUCCUCA [Eternabot (Original) Solution 22] (Eterna round: R97, puzzle: Exclusion 4)
- apparent KD of MS2 coat protein (input ligand: FMN 200 uM): 29.5 nM
- apparent KD of MS2 coat protein (input ligand: none): 21.5 nM

Sequence: CCGGUUGGCGCAGGAUAUACAUGAGGAUCACCCAUGUUGAUGAGGAUCACCCAUCAGUUUUUGUUGUAGAAGGGUGGCCCGGCC (Eterna round: R96, puzzle: Exclusion NG 2)
- apparent KD of MS2 coat protein [1]: 16.2 nM

Sequence: CCGUCCCGCCCUGGGUGGGACAUGAGGAUCACCCAUGUGGGUUUUCUUUCUUUCACCCGGGCGGGCGGGCGGGCUGG [sensor,turn-off variant1(1)] (Eterna round: R97, puzzle: Sensor, turn-off variant 1)
- apparent KD of MS2 coat protein (input ligand: FMN 200 uM): 20.4 nM
- apparent KD of MS2 coat protein (input ligand: none): 54.8 nM

Sequence: CCUAGUGUCGGAGGAUAUCCUACACAAACCUUAGGAGAAGGCCGACAUGAGGAUCACCCAUGUAAAACCUAAACCUAAAAUCAA [Raesusbi] (Eterna round: R96, puzzle: Exclusion NG 1)
- apparent KD of MS2 coat protein (input ligand: FMN 200 uM): 48.9 nM
- apparent KD of MS2 coat protein [1]: 12.8 nM
- apparent KD of MS2 coat protein (input ligand: none): 15.2 nM

Sequence: CCUAUGUGAGGAUAUGUCUGGUCUUCUUUUAUUUUUUACAGACAGAAGGCACAUGAGGAUCACCCAUGUCAGAC [Ex4 - 3 - 48] (puzzle: Exclusion 4)
- apparent KD of MS2 coat protein [2]: 23 nM

Sequence: CCUCAACAGUAGGAUAUCAUCAAACUAUUGUGAUGAGAAGGACUGACAUGAGGAUCACCCAUGUUGACGUGAUA [Exclusion 6 - 6:b] (puzzle: Exclusion 6)
- apparent KD of MS2 coat protein [2]: 47.8 nM

Sequence: CCUCCACAUGAGGAUCACCCAUGUCAGGAUAUCGUGUGUUUUUUUUCGGUCGCGCGUGCGAGAAGGGACGUCUU (puzzle: Exclusion 1)
- apparent KD of MS2 coat protein [2]: 23.7 nM

Sequence: CCUCCGUAUUAGGAUAUCGUCCCGGAAACGGGACGAGAAGGAAUGACAUGAGGAUCACCCAUGUUAACGUGAUG [Mod of Brourd 20 - Jieux - Exclusion 6] (Eterna round: R97, puzzle: Exclusion 6)
- apparent KD of MS2 coat protein (input ligand: FMN 200 uM): 48.9 nM
- apparent KD of MS2 coat protein (input ligand: none): 20.7 nM

Sequence: CCUCUACAUGAGGAUCACCCAUGUGAGGAUAUAAGAUUGCGAAUUCCGCACUACGGUCUUAGAAGGCGCGUGGA [Riarve] (Eterna round: R96, puzzle: Exclusion 1)
- apparent KD of MS2 coat protein (input ligand: FMN 200 uM): 31.3 nM
- apparent KD of MS2 coat protein [1]: 14.8 nM
- apparent KD of MS2 coat protein (input ligand: none): 20.3 nM

Sequence: CCUCUACAUGAGGAUCACCCAUGUGAGGAUAUAAGAUUGCGAAUUCCGCACUACGGUCUUAGAAGGCGCGUGGA [Riarve] (puzzle: Exclusion 1)
- apparent KD of MS2 coat protein [2]: 15.7 nM

Sequence: CCUCUACAUGAGGAUCACCCAUGUGAGGAUAUCAAAGUCAGAGCGGCUCUCUGACUCAUGAGAAGGUGCAUGAA [EX1 A.13] (Eterna round: R97, puzzle: Exclusion 1)
- apparent KD of MS2 coat protein (input ligand: FMN 200 uM): 30.6 nM
- apparent KD of MS2 coat protein (input ligand: none): 21.6 nM

Sequence: CCUCUACAUGAGGAUCACCCAUGUGAGGAUAUCAGUGCAAAGGGCACGUAUUAAAACGUGAGAAGGCACAUGGG [EX1 A.17] (Eterna round: R97, puzzle: Exclusion 1)
- apparent KD of MS2 coat protein (input ligand: FMN 200 uM): 88.9 nM
- apparent KD of MS2 coat protein (input ligand: none): 135 nM

Sequence: CCUCUUGGGCAAGGAUAUCCUGUGCGGUUCCGGCUCGUGUCUGUCACAUGAGGAUCACCCAUGUGGGAGAAGGUGCCUGCGGUC [Design 80] (Eterna round: R96, puzzle: Exclusion NG 2)
- apparent KD of MS2 coat protein (input ligand: FMN 200 uM): 13 nM
- apparent KD of MS2 coat protein [1]: 10.7 nM
- apparent KD of MS2 coat protein (input ligand: none): 16.3 nM

Sequence: CCUGCGUGAGGAUAUACAUGAGGAUCACCCAUGUCACAAUUAACACACUCCGCCUCACGUAGAAGGCACGCAUA [Tienarra] (Eterna round: R97, puzzle: Exclusion 3)
- apparent KD of MS2 coat protein (input ligand: FMN 200 uM): 23.1 nM
- apparent KD of MS2 coat protein (input ligand: none): 13.6 nM

Sequence: CCUGUGUAAGGAUAUGACAAUGGUAUCUUCGGAUACCAUUGUCAGAAGGUACAUGAGGAUCACCCAUGUAACAC [Ex4-3: 13] (puzzle: Exclusion 4)
- apparent KD of MS2 coat protein [2]: 14.8 nM

Sequence: CCUUAGCGAGGAUAUACAUGAGGAUCACCCAUGUGAUCCUAAGGCUGAUCAAGCCUAUGUAGAAGGCGCAAAUC [salish99_ex3_r4_003] (Eterna round: R97, puzzle: Exclusion 3)
- apparent KD of MS2 coat protein (input ligand: FMN 200 uM): 180 nM
- apparent KD of MS2 coat protein (input ligand: none): 442 nM

Sequence: CCUUAGUCACAGGAUAUGCUCAUCUAAUGAUGAGCAGAAGGGUGAACAUGAGGAUCACCCAUGUUUACCAGGGU [Omei Ex6 E4] (Eterna round: R97, puzzle: Exclusion 6)
- apparent KD of MS2 coat protein (input ligand: FMN 200 uM): 247 nM
- apparent KD of MS2 coat protein (input ligand: none): 37.1 nM

Sequence: CCUUUGUCAGGAUAUCAGAAAACGCUCGUAGGGAGCGCAAAUGAGAAGGGACAUGAGGAUCACCCAUGUAAAGA [Edmareen] (puzzle: Exclusion 4)
- apparent KD of MS2 coat protein [3]: 219 nM
- apparent KD of MS2 coat protein [2]: 45.1 nM
- apparent KD of MS2 coat protein [4]: 60.3 nM

Sequence: CCUUUGUCAGGAUAUCGAAAAGGGAGGCCAAAAGCCUCCGGUGAGAAGGGACAUGAGGAUCACCCAUGUGAAAA [Usleaor] (puzzle: Exclusion 4)
- apparent KD of MS2 coat protein [2]: 37.9 nM

Sequence: CGAGCUGGAGUGAGGAUAUCGUGUUCGAAAGAACGUGAGAAGGCACAUGAGGAUCACCCAUGUGAUUCAGCUCG [Omei Ex4B A4] (Eterna round: R97, puzzle: Brourd's mod of Exclusion 4)
- apparent KD of MS2 coat protein (input ligand: FMN 200 uM): 28 nM
- apparent KD of MS2 coat protein (input ligand: none): 20.1 nM

Sequence: CGAGGUAGAGGAUAUACGUGGAAAUAGAUUCAUGUUAAUCUACAUGAGGAUCACCCAUGUAGAAGGCUAUAGCG [JR_Ex2_Sub075] (Eterna round: R97, puzzle: Exclusion 2)
- apparent KD of MS2 coat protein (input ligand: FMN 200 uM): 80 nM
- apparent KD of MS2 coat protein (input ligand: none): 24.9 nM

Sequence: CGAGUGUAAGGAUAUUCGGCGCCAGGGAACAACCUAGCGUAGAAGAAGGUACAUGAGGAUCACCCAUGUGGUUA [Riatees] (puzzle: Exclusion 4)
- apparent KD of MS2 coat protein [2]: 151 nM

Sequence: CGAUAAAGCUGAGGAUAUGAGAAUAGAAAGAAAUCAGAAGGCAGACAUGAGGAUCACCCAUGUGAGUUCUCGAGAUUACAUGGU [Prohibition 46 - Jieux - Exclusion NG 1] (Eterna round: R96, puzzle: Exclusion NG 1)
- apparent KD of MS2 coat protein [1]: 112 nM

Sequence: CGAUGCUCGUGCCCACAUGAGGAUCACCCAUGUCGAGUCAGCGAGGAUAUCGGUGGCACAUAGUACGAGAAGGCGCGGACCUGA [Ex NG3 #18] (Eterna round: R96, puzzle: Exclusion NG 3)
- apparent KD of MS2 coat protein (input ligand: FMN 200 uM): 17.7 nM
- apparent KD of MS2 coat protein [1]: 11.5 nM
- apparent KD of MS2 coat protein (input ligand: none): 17 nM

Source: the supplement of paper PMC9170038
